The values below come from patent US20200095340A1.

The chains are these.
B1: anti-DLL3 trispecific protein 1G011 (protein, part only; not given: CD3 binder and albumin binder, part only)
chain, part: EVQLVESGGGLVQPGGSLTLSCVASGSTSSINAMAWYRRAPGKQRELVAGISSDGSKVYADSVKGRFTISRDNAKNSVYLQMNSLRAEDTAVYYCYYFKTVSGSSMRYWGQGTLVTVSSGGGGSGGGSGGGGSGGGSHHHHHH
B2: anti-DLL3 trispecific protein 1B010 (protein, part only; not given: CD3 fragment and albumin sdAb, part only)
chain, part: EVQLVESGGGLVQPGGSLTLSCVASGSTSRINAMGWYRRAPGKQRELVAGISSDGSKVYADSVKGRFTISRDNAKNSVYLQMNSLRAEDTAVYYCYYFRTKSGSSMRYWGQGTLVTVSSGGGGSGGGSGGGGSGGGSHHHHHH
B3: anti-DLL3 trispecific protein 1C07 (protein, part only; not given: anti-CD3 fragment and anti-albumin sdAb, part only)
chain, part: EVQLVESGGGLVQPGGSLTLSCVASGSTSSINAMAWYRRAPGKQRELVAGISSDGSKVYADSVKGRFTISRDNAKNSVYLQMNSLRAEDTAVYYCYYFRTVSGSSMRYWGQGTLVTVSSGGGGSGGGSGGGGSGGGSHHHHHH
B4: anti-DLL3 trispecific protein 2D010 (protein, part only; not given: CD3 binder and albumin binder, part only)
chain, part: EVQLVESGGGLVQPGGSLTLSCVASGSTSSINAMGWYRRAPGKQRELVAGISSDGSKVYADSVKGRFTISRDNAKNSVYLQMNSLRAEDTAVYYCYYFRTKSGSSMRYWGQGTLVTVSSGGGGSGGGSGGGGSGGGSHHHHHH
B5: anti-DLL3 trispecific protein 2D03 (protein, part only; not given: anti-CD3 and anti-albumin domains, part only)
chain, part: EVQLVESGGGLVQPGGSLTLSCVASGKTSSINAMGWYRRAPGKQRELVAGISSDGSKVYADSVKGRFTISRDNAKNSVYLQMNSLRAEDTAVYYCYYFRTVSGVSMRYWGQGTLVTVSSGGGGSGGGSGGGGSGGGSHHHHHH
B6: anti-DLL3 trispecific protein 1E02 (protein, part only; not given: anti-CD3 fragment and anti-albumin sdAb, part only)
chain, part: EVQLVESGGGLVQPGGSLTLSCVASGQTSSINAMGWYRRAPGKQRELVAGISSDGSQVYADSVKGRFTISRDNAKNSVYLQMNSLRAEDTAVYYCYYFRTKSGSSMRYWGQGTLVTVSSGGGGSGGGSGGGGSGGGSHHHHHH
B7: anti-DLL3 trispecific protein 2A08 (protein, part only; not given: anti-CD3 and anti-albumin domains, part only)
chain, part: EVQLVESGGGLVQPGGSLTLSCVASGSTKSINAMGWYRRAPGKQRELVAGISSDGSKVYRDSVKGRFTISRDNAKNSVYLQMNSLRAEDTAVYYCYYFRTSSGSSMRYWGQGTLVTVSSGGGGSGGGSGGGGSGGGSHHHHHH
B8: anti-DLL3 trispecific protein 1D06 (protein, part only; not given: anti-CD3 fragment and anti-albumin sdAb, part only)
chain, part: EVQLVESGGGLVQPGGSLTLSCVASGSTSSINAMGWYRRAPGKQRELVAGISSDNSKVYADSVKGRFTISRDNAKNSVYLQMNSLRAEDTAVYYCYYFRTVHGSSMRYWGQGTLVTVSSGGGGSGGGSGGGGSGGGSHHHHHH
B9: anti-DLL3 trispecific protein 2B012 (protein, part only; not given: anti-CD3 and anti-albumin domains, part only)
chain, part: EVQLVESGGGLVQPGGSLTLSCVASGTTSSINAMGWYRRAPGKQRELVAGISSDGSKVYNDSVKGRFTISRDNAKNSVYLQMNSLRAEDTAVYYCYYFRTVRGSSMRYWGQGTLVTVSSGGGGSGGGSGGGGSGGGSHHHHHH
B10: anti-DLL3 trispecific protein 1A01 (protein, part only; not given: anti-CD3 and anti-albumin domains, part only)
chain, part: EVQLVESGGGLVQPGGSLTLSCVASGFTSSINAMGWYRRAPGKQRELVAGISSDGSFVYADSVKGRFTISRDNAKNSVYLQMNSLRAEDTAVYYCYYFRHVSGSSMRYWGQGTLVTVSSGGGGSGGGSGGGGSGGGSHHHHHH
B11: anti-DLL3 trispecific protein 2C010 (protein, part only; not given: CD3 binder and albumin binder, part only)
chain, part: EVQLVESGGGLVQPGGSLTLSCVASGSTSKINAMGWYRRAPGKQRELVAGISSDRSKVYADSVKGRFTISRDNAKNSVYLQMNSLRAEDTAVYYCYYFRTVAGSSMRYWGQGTLVTVSSGGGGSGGGSGGGGSGGGSHHHHHH
B12: anti-DLL3 trispecific protein 1C011 (protein, part only; not given: anti-CD3 fragment and anti-albumin domain, part only)
chain, part: EVQLVESGGGLVQPGGSLTLSCVASGTTSSINAMGWYRRAPGKQRELVAGISSDGSKVYEDSVKGRFTISRDNAKNSVYLQMNSLRAEDTAVYYCYYFRTVSGSSMRYWGQGTLVTVSSGGGGSGGGSGGGGSGGGSHHHHHH
B13: anti-DLL3 trispecific protein 2B05 (protein, part only; not given: anti-CD3 fragment and anti-albumin domain, part only)
chain, part: EVQLVESGGGLVQPGGSLTLSCVASGTTSSINAMGWYRRAPGKQRELVAGISSDGTKVYADSVKGRFTISRDNAKNSVYLQMNSLRAEDTAVYYCYYFHTVSGSSMRYWGQGTLVTVSSGGGGSGGGSGGGGSGGGSHHHHHH
B14: anti-DLL3 trispecific protein 1E07 (protein, part only; not given: anti-CD3 fragment and anti-albumin sdAb, part only)
chain, part: EVQLVESGGGLVQPGGSLTLSCVASGSTSSINAMAWYRRAPGKQRELVAGISSDGSKVYNDSVKGRFTISRDNAKNSVYLQMNSLRAEDTAVYYCYYFRTVRGSSQRYWGQGTLVTVSSGGGGSGGGSGGGGSGGGSHHHHHH
B15: anti-DLL3 trispecific protein 1A04 (protein, part only; not given: anti-CD3 fragment and anti-albumin sdAb, part only)
chain, part: EVQLVESGGGLVQPGGSLTLSCVASGSTSSINAMGWYRRAPGKQRELVAGISSDGSKVYEDSVKGRFTISRDNAKNSVYLQMNSLRAEDTAVYYCYYFRTVSGSSMRYWGQGTLVTVSSGGGGSGGGSGGGGSGGGSHHHHHH
B16: anti-DLL3 trispecific protein 2B03 (protein, part only; not given: CD3 fragment and albumin sdAb, part only)
chain, part: EVQLVESGGGLVQPGGSLTLSCVASGSTSSINAMGWYRRAPGKQRELVAGISSDGSLVYADSVKGRFTISRDNAKNSVYLQMNSLRAEDTAVYYCYYFTTVSGSSMRYWGQGTLVTVSSGGGGSGGGSGGGGSGGGSHHHHHH
B17: anti-DLL3 trispecific protein 3A011 (protein, part only; not given: CD3 binder and albumin binder, part only)
chain, part: EVQLVESGGGLVQPGGSLTLSCAASGSSVSFLSLAWYRQAPGKKRELVAGISTDGSTDYIDSVKGRFTISRDNAKNSVYLQMNSLRAEDTAVYYCYAYRWRTRYTYWGQGTLVTVSSGGGGSGGGSGGGGSGGGSHHHHHH
B18: anti-DLL3 trispecific protein 4C07 (protein, part only; not given: anti-CD3 and anti-albumin domains, part only)
chain, part: EVQLVESGGGLVQPGGSLTLSCAASGSKVSFLSMAWYRQAPGKKRELVAGISADGSKDYIDSVKGRFTISRDNAKNSVYLQMNSLRAEDTAVYYCYAYRWTTRLTYWGQGTLVTVSSGGGGSGGGSGGGGSGGGSHHHHHH
B19: anti-DLL3 trispecific protein 3F05 (protein, part only; not given: CD3 binder and albumin binder, part only)
chain, part: EVQLVESGGGLVQPGGSLTLSCAASGSKVSFLSMAWYRQAPGKKRELVAGISTDGSTDYIDSVKGRFTISRDNAKNSVYLQMNSLRAEDTAVYYCYAYRWTTRRTYWGQGTLVTVSSGGGGSGGGSGGGGSGGGSHHHHHH
B20: anti-DLL3 trispecific protein 4D06 (protein, part only; not given: anti-CD3 fragment and anti-albumin sdAb, part only)
chain, part: EVQLVESGGGLVQPGGSLTLSCAASGSSVKFLSMAWYRQAPGKKRELVAGISPDGSTDYIDSVKGRFTISRDNAKNSVYLQMNSLRAEDTAVYYCYAYRWTTRYRYWGQGTLVTVSSGGGGSGGGSGGGGSGGGSHHHHHH
B21: anti-DLL3 trispecific protein 3B07 (protein, part only; not given: anti-CD3 fragment and anti-albumin sdAb, part only)
chain, part: EVQLVESGGGLVQPGGSLTLSCAASGSRVSFLSMAWYRQAPGKKRELVAGISADGSTTYIDSVKGRFTISRDNAKNSVYLQMNSLRAEDTAVYYCYAYRWTTRYTYWGQGTLVTVSSGGGGSGGGSGGGGSGGGSHHHHHH
B22: anti-DLL3 trispecific protein 4G08 (protein, part only; not given: anti-CD3 fragment and anti-albumin sdAb, part only)
chain, part: EVQLVESGGGLVQPGGSLTLSCAASGSSVRFLSMAWYRQAPGKKRELVAGISTDGSTDYIDSVKGRFTISRDNAKNSVYLQMNSLRAEDTAVYYCYAYRWTTRYRYWGQGTLVTVSSGGGGSGGGSGGGGSGGGSHHHHHH
B23: anti-DLL3 trispecific protein 4G011 (protein, part only; not given: anti-CD3 fragment and anti-albumin sdAb, part only)
chain, part: EVQLVESGGGLVQPGGSLTLSCAASGSSVRFLSMAWYRQAPGKKRELVAGISADGSTDYIGSVKGRFTISRDNAKNSVYLQMNSLRAEDTAVYYCYAYRWSTRYTYWGQGTLVTVSSGGGGSGGGSGGGGSGGGSHHHHHH
B24: anti-DLL3 trispecific protein 3G09 (protein, part only; not given: CD3 fragment and albumin sdAb, part only)
chain, part: EVQLVESGGGLVQPGGSLTLSCAASGSSVSVLSMAWYRQAPGKKRELVAGISADGSTDYIGSVKGRFTISRDNAKNSVYLQMNSLRAEDTAVYYCYAYRWTTRTTYWGQGTLVTVSSGGGGSGGGSGGGGSGGGSHHHHHH
B25: anti-DLL3 trispecific protein 4C06 (protein, part only; not given: CD3 fragment and albumin sdAb, part only)
chain, part: EVQLVESGGGLVQPGGSLTLSCAASNSSVSKLSMAWYRQAPGKKRELVAGISADGSTAYIDSVKGRFTISRDNAKNSVYLQMNSLRAEDTAVYYCYAYRWSTRYTYWGQGTLVTVSSGGGGSGGGSGGGGSGGGSHHHHHH
B26: anti-DLL3 trispecific protein 3F011 (protein, part only; not given: anti-CD3 and anti-albumin domains, part only)
chain, part: EVQLVESGGGLVQPGGSLTLSCAASGSSVSFLSMAWYRQAPGKKRELVAGISTDGSTDYIDSVKGRFTISRDNAKNSVYLQMNSLRAEDTAVYYCYAYRWRTRYTYWGQGTLVTVSSGGGGSGGGSGGGGSGGGSHHHHHH
B27: anti-DLL3 trispecific protein 4E08 (protein, part only; not given: anti-CD3 fragment and anti-albumin sdAb, part only)
chain, part: EVQLVESGGGLVQPGGSLTLSCAASGSSVKFLSMAWYRQAPGKKRELVAGISTDGSTDYIDSVKGRFTISRDNAKNSVYLQMNSLRAEDTAVYYCYAYKWTTRYTYWGQGTLVTVSSGGGGSGGGSGGGGSGGGSHHHHHH
B28: anti-DLL3 trispecific protein 4B02 (protein, part only; not given: CD3 binder and albumin binder, part only)
chain, part: EVQLVESGGGLVQPGGSLTLSCAASGSRVSFLSMAWYRQAPGKKRELVAGISADGSTTYIDSVKGRFTISRDNAKNSVYLQMNSLRAEDTAVYYCYAYRWTTRFTYWGQGTLVTVSSGGGGSGGGSGGGGSGGGSHHHHHH
B29: anti-DLL3 trispecific protein 3B05 (protein, part only; not given: anti-CD3 and anti-albumin domains, part only)
chain, part: EVQLVESGGGLVQPGGSLTLSCVASGSSVKFLSMAWYRQAPGKKRELVAGISADGSTTYIDSVKGRFTISRDNAKNSVYLQMNSLRAEDTAVYYCYAYRWTTRRTYWGQGTLVTVSSGGGGSGGGSGGGGSGGGSHHHHHH
B30: anti-DLL3 trispecific protein 4C010 (protein, part only; not given: CD3 binder and albumin binder, part only)
chain, part: EVQLVESGGGLVQPGGSLTLSCAASGSKVSFMSMAWYRQAPGKKRELVAGISADGSTDYIDSVKGRFTISRDNAKNSVYLQMNSLRAEDTAVYYCYAYRWTTRLTYWGQGTLVTVSSGGGGSGGGSGGGGSGGGSHHHHHH

biotinylated human DLL3 protein expressed as a human IgG1 fusion protein (human), sequence (Q9NYJ7 other isoform, or with tags, fused parts or gaps): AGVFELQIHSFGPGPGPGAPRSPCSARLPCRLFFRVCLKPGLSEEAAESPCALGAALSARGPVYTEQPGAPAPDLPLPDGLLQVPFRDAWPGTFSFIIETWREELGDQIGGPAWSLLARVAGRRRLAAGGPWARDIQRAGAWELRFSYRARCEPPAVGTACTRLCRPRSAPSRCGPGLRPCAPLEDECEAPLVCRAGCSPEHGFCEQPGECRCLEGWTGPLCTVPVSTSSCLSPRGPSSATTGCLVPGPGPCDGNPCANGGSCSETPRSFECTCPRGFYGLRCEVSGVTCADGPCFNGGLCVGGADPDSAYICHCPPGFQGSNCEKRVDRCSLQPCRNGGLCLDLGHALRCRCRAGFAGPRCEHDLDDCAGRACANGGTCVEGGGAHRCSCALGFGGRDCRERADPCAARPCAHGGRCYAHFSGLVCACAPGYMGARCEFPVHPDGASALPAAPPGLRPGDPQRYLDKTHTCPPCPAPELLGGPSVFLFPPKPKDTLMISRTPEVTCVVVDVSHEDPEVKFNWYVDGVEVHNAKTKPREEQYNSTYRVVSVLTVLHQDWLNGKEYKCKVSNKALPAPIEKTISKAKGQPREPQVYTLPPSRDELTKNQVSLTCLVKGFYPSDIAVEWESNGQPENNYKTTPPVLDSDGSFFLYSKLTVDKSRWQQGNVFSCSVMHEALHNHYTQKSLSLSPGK

This experiment addresses biotinylated human DLL3 protein expressed as a human IgG1 fusion protein (human) (UniProt Q9NYJ7). Put plainly: Octet BLI; biotinylated huDLL3-IgG1 fusion on streptavidin tips; single 50 nM; conditioned medium.
As for B1, the dissociation constant (Kd) was found to be 6.8 nM. That is a single-digit nanomolar value.
For the molecule B2, the Kd was 6.8 nM.
B3 came in with a dissociation constant Kd of 7.1 nM. This Kd and that of the molecule before are within 1.5-fold of each other.
As for B4, the figure is 7.3 nM; as for B5, 6.8 nM; as for B6, 7 nM.
As for B7, the figure is 7.7 nM; as for B8, 6.8 nM.
Turning to B9, the Kd came to 7.3 nM.
On to B10, for which the Kd was found to be 7 nM.
B11 yielded a Kd of 7.6 nM. This Kd and that of the molecule before are within 1.5-fold of each other.
As for B12, the figure is 7.6 nM; as for B13, 7.4 nM.
As for B14, the figure is 7.1 nM; as for B15, 7.8 nM.
With B16, the Kd is 7.6 nM.
As for B17, the figure is 6.8 nM; as for B18, 7.5 nM.
As for B19, the figure is 7.5 nM.
As for B20, the figure is 7.5 nM.
B21 displayed a Kd of 7.3 nM.
In the case of B22 it was 7.6 nM; in that of B23, 7.5 nM; in that of B24, 7.3 nM.
In the case of B25 it was 6.8 nM.
In the case of B26 it was 7.1 nM; in that of B27, 7.2 nM; in that of B28, 7.1 nM.
Consider B29, for which the Kd came out at 7.2 nM. This Kd and that of the molecule before are within 1.5-fold of each other.
As for B30, the figure is 7 nM.

As usually defined, the Kd is the constant that tells how readily two partners part at equilibrium.
